Source: IntAct's records for PubMed 11278869

B1: A-kinase anchor protein 3 (Homo sapiens), O75969 (parent)
chain: MSEKVDWLQSQNGVCKVDVYSPGDNQAQDWKMDTSTDPVRVLSWLRRDLEKSTAEFQDVRFKPGESFGGETSNSGDPHKGFSVDYYNTTTKGTPERLHFEMTHKEIPCQGPRAQLGNGSSVDEVSFYANRLTNLVIAMARKEINEKIDGSENKCVYQSLYMGNEPTPTKSLSKIASELVNETVSACSRNAAPDKAPGSGDRVSGSSQSPPNLKYKSTLKIKESTKERQGPDDKPPSKKSFFYKEVFESRNGDYAREGGRFFPRERKRFRGQERPDDFTASVSEGIMTYANSVVSDMMVSIMKTLKIQVKDTTIATILLKKVLLKHAKEVVSDLIDSFLRNLHSVTGTLMTDTQFVSAVKRTVFSHGSQKATDIMDAMLRKLYNVMFAKKVPEHVRKAQDKAESYSLISMKGMGDPKNRNVNFAMKSETKLREKMYSEPKSEEETCAKTLGEHIIKEGLTLWHKTQQKECKSLGFQHAAFEAPNTQRKPASDISFEYPEDIGNLSLPPYPPEKPENFMYDSDSWAEDLIVSALLLIQYHLAQGGRRDARSFVEAAGTTNFPANEPPVAPDESCLKSAPIVGDQEQAEKKDLRSVFFNFIRNLLSETIFKRDQSPEPKVPEQPVKEDRKLCERPLASSPPRLYEDDETPGALSGLTKMAVSQIDGHMSGQMVEHLMNSVMKLCVIIAKSCDASLAELGDDKSGDASRLTSAFPDSLYECLPAKGTGSAEAVLQNAYQAIHNEMRGTSGQPPEGCAAPTVIVSNHNLTDTVQNKQLQAVLQWVAASELNVPILYFAGDDEGIQEKLLQLSAAAVDKGCSVGEVLQSVLRYEKERQLNEAVGNVTPLQLLDWLMVNL
B2: Ropporin-1B (Homo sapiens), Q9BZX4 (parent)
chain: MAQTDKPTCIPPELPKMLKEFAKAAIRAQPQDLIQWGADYFEALSRGETPPVRERSERVALCNWAELTPELLKILHSQVAGRLIIRAEELAQMWKVVNLPTDLFNSVMNVGRFTEEIEWLKFLALACSALGVTITKTLKIVCEVLSCDHNGGLPRIPFSTFQFLYTYIAEVDGEICASHVSRMLNYIEQEVIGPDGLITVNDFTQNPRVWLE

Variants of: B1
Settings: with rop1b_human ROPN1B, Q9BZX4

| effect of a mutation on the interaction | Variant |
| --- | --- |
| decreasing interaction | L131P |

Variants of: B1
Settings: with kap2_human PRKAR2A

| effect of a mutation on the interaction | Variant |
| --- | --- |
| decreasing interaction | L131P |

Variants of: B2
Settings: with akap3_human AKAP3, O75969

| effect of a mutation on the interaction | Variant |
| --- | --- |
| decreasing interaction | L18A |
